Ends that are not written are not given here.
Target: T1, NEO-101 antibody (chimeric NPC-1 antibody)
T1 construct: Chimeric (murine variable, human constant regions); Used unlabelled, biotinylated, FITC-labelled or coupled to Dynal beads depending on the assay; also called NPC-1C; NPC-1-C
Assay: ELISA: peptide-biotin on NEO-101 coated plate
Experimental: To solve the poor binding of peptides to 96 well plate, peptides were biotinylated using EZ-link micro NHS Biotinylation kit (Pierce Cat #21955), and labeling efficiency checked by dot blot (50%). […] The solution was blocked with 200 μl of 1% milk in TBS at RT for 20 min. Aliquots of 100 μl peptide-biotin (1 μg/ml) in 0.1% milk-TBS were added, and incubated at RT of 2 hr, followed by three washes with TBST. Streptavidin-HRP (100 μl of 1:2000 diluted in 1:10 diluted blocking buffer) was added, and the wells incubated at RT for 1 hr, followed by three washed. TMB was then added, and the wells were read at 450 nm. Positive controls for NPC-1C binding used 4B6-biotin. The results are shown in FIG. 11, which indicates biotinylated peptides bind to NPC-1C coated plate.

T1 sequence (VH, as listed by the source limits assumed, chain 1 of 2): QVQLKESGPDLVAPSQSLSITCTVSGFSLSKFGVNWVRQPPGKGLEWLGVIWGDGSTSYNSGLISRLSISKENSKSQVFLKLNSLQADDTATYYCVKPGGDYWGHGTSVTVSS
T1 sequence (VL, as listed by the source limits assumed, chain 2 of 2): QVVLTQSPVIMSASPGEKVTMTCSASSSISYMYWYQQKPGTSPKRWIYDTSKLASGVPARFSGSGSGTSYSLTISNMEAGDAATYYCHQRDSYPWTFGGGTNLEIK

YSHSVHAIEDNWSPRGGGGS (also: biotinylated (NHS kit) in direct ELISA, unlabelled in competition assays, Negative control peptide) [synthetic peptide 4-1-3-C11 (control peptide)]
binding result: no binding (tested: 1 ug/ml)
